Results from patent US20160030526A1 (GENERAL HOSPITAL, published 2016).

Target: monovalent murine IL-2 fusion toxin (DT390-mIL-2-6xHis)
Experiment: flow cytometry on CTLL-2 cells

B1: murine IL-2 receptor on murine CD25+ CTLL-2 cells (receptor)
chain 1: ELCLYDPPEVPNATFKALSYKNGTILNCECKRGFRRLKELVYMRCLGNSWSSNCQCTSNSHDKSRKQVTAQLEHQKEQQTTTDMQKPTQSMHQENLTGHCREPPPWKHEDSKRIYHFVEGQSVHYECIPGYKALQRGPAISICKMKCGKTGWTQPQLTCVDEREHHRFLASEESQGSRNSSPESETSCPITTTDFPQPTETTAMTETFVLTMEYKVAVASCLFLLISILLLSGLTWQHRWRKSRRTI
chain 2: AVKNCSHLECFYNSRANVSCMWSHEEALNVTTCHVHAKSNLRHWNKTCELTLVRQASWACNLILGSFPESQSLTSVDLLDINVVCWEEKGWRRVKTCDFHPFDNLRLVAPHSLQVLHIDTQRCNISWKVSQVSHYIEPYLEFEARRRLLGHSWEDASVLSLKQRQQWLFLEMLIPSTSYEVQVRVKAQRNNTGTWSPWSQPLTFRTRPADPMKEILPMSWLRYLLLVLGCFSGFFSCVYILVKCRYLGPWLKTVLKCHIPDPSEFFSQLSSQHGGDLQKWLSSPVPLSFFSPSGPAPEISPLEVLDGDSKAVQLLLLQKDSAPLPSPSGHSQASCFTNQGYFFFHLPNALEIESCQVYFTYDPCVEEEVEEDGSRLPEGSPHPPLLPLAGEQDDYCAFPPRDDLLLFSPSLSTPNTAYGGSRAPEERSPLSLHEGLPSLASRDLMGLQRPLERMPEGDGEGLSANSSGEQASVPEGNLHGQDQDRGQGPILTLNTDAYLSLQELQAQDSVHLI
chain 3: WSSKVLMSSANEDIKADLILTSTAPEHLSAPTLPLPEVQCFVFNIEYMNCTWNSSSEPQATNLTLHYRYKVSDNNTFQECSHYLFSKEITSGCQIQKEDIQLYQTFVVQLQDPQKPQRRAVQKLNLQNLVIPRAPENLTLSNLSESQLELRWKSRHIKERCLQYLVQYRSNRDRSWTELIVNHEPRFSLPSVDELKRYTFRVRSRYNPICGSSQQWSKWSQPVHWGSHTVEENPSLFALEAVLIPVGTMGLIITLIFVYCWLERMPPIPPIKNLEDLVTEYQGNFSAWSGVSKGLTESLQPDYSERFCHVSEIPPKGGALGEGPGGSPCSLHSPYWPPPCYSLKPEA
notes: whole, on cells; also called murine CD25+ IL-2 receptor
binding result: binds
